Data published in patent US9249224B2 (RINAT NEUROSCIENCE CORP., priority 2011, dated 2016).

Key:
[1] = target: T1, human GHR (Homo sapiens, UniProt P10912, I544L); assay: STAT5 phosphorylation in vitro assay, human GHR-transfected HEK293 cells; assay type: cell-based; settings: for fluorescent signal ave (phospho-STAT5): Table 7, human GHR-transfected cells
T1 construct: expressed in transfected cells; host or cells: HEK293
T1 sequence (P10912 19-638 I544L): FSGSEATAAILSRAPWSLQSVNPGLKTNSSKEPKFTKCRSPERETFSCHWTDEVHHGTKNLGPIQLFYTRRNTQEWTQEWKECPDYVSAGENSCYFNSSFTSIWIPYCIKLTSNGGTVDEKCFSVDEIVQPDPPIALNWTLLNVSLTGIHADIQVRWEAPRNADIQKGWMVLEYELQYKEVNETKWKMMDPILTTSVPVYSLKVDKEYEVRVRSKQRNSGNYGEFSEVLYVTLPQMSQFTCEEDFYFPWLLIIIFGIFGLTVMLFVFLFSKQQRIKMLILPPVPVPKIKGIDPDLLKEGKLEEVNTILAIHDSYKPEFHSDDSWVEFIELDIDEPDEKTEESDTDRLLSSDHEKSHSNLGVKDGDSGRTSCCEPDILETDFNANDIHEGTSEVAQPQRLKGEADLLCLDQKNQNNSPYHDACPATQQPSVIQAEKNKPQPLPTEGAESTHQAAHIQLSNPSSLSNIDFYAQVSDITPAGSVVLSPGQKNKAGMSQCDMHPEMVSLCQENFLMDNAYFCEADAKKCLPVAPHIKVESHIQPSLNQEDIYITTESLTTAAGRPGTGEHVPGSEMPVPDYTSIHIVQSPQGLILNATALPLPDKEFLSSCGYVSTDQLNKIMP
Experimental: This Example illustrates the effect of GHR antibodies in an in vitro STAT5 phosphorylation assay. In this Example, the ability of GHR antibodies to block GHR downstream signaling was tested in vitro using human GHR overexpressing cells and cyno GHR overexpressing cells. […]
Antibodies SS3 and SS1 (hIgG2Δa) were tested using a STAT5 phosphorylation assay. For the STAT5 assay, full-length human GHR overexpressing HEK293 cells or full-length cyno GHR-overexpressing HEK293 cells were cultured, counted by automated cell counter, and seeded in warm freestyle media in 12-well plates (5×10^5 cells/well in 1 ml media). Cells were allowed to settle for 3 hours at 37° C. then treated with 2.5, 5, 50, or 500 nM of SS1 or SS3 in media.
Millipore™ lysis buffer with 1× protease inhibitor cocktail and sodium orthovanadate was added to each pellet at a volume of 100 ul/pellet Cells were vortexed and incubated for 15 minutes at room temp with occasional vortexing, Millipore™ Assay buffer 2 with 1× protease inhibitor cocktail and 1 mM sodium orthovanadate was then added to the lysates at 200 ul/well.
25 ul/well of sample lysate was added to the wells and the beads and samples were incubated overnight at 4′C with shaking in the dark. […]
The plate was read using a Luminex 200 instrument and florescent signal emitted from the samples was measured.

[2] = tested on: ALS; assay: Serum ALS levels in cynomolgus monkeys after a single antibody dose; assay type: in vivo, cynomolgus monkey; settings: for serum ALS levels decreased to about: by 96 hours; for serum ALS decrease below control: by 72 hours
Experimental: To determine if GHR antagonist monoclonal antibodies can affect IGF-1, IGFBP-3, and ALS levels in vivo by inhibiting the function of GHR, the effect of humanized anti-human GHR antibody SS1 was tested in cynomolgus monkeys. A dose-response study was conducted to test for changes in IGF-1, IGFBP-3, and ALS levels following a single dose of SS1. Eight naïve female cynomolgus monkeys were injected intravenously with a single dose of SS1 or negative control human IgG2, in 1×PBS 0.01% Tween™ 20. Two monkeys were dosed with 30 mg/kg SS1, two were dosed with 10 mg/kg SS1, two were dosed with 3 mg/kg SS1, and two were dosed with 30 mg/kg negative control human IgG2Δa on Day 1. […] Serum was also taken from the 30 mg/kg SS1 and negative control treated animals at 864 h post-dose.
Serum samples were analyzed for changes in ALS levels compared to baseline using a BioVendor™ Human ALS ELISA kit (cat. #RMEE35R).
Six naïve female cynomolgus monkeys were injected either intravenously or subcutaneously with a single dose of […] or negative control human IgG2Δa in 1×PBS 0.01% Tween™ 20. Two monkeys were dosed with 3 mg/kg SS1 intravenously, two were dosed with 3 mg/kg SS1 subcutaneously, and two were dosed with 3 mg/kg negative control human IgG2Δa subcutaneously on Day 1. Serum samples were taken from all animals at the following timepoints: pre-dose, 24 h, 72 h, 120 h, 168 h, 216 h, 264 h, 312 h, 360 h, 408 h, 456 h and 504 h.

B1: SS1: humanized GHR antagonist antibody; VL SEQ ID NO: 7, VH SEQ ID NO: 8; hIgG2Δa heavy chain SEQ ID NO: 134, light chain SEQ ID NO: 135 (antibody)
heavy: EVQLVESGGGLVKPGGSLRLSCAASGFTFSDAWMDWVRQAPGKGLEWVAEIRSKANYHATYYAESVKGRFTISRDDSKNTLYLQMNSLKTEDTAVYYCTLIRDYWGQGTLVTVSSASTKGPSVFPLAPCSRSTSESTAALGCLVKDYFPEPVTVSWNSGALTSGVHTFPAVLQSSGLYSLSSVVTVPSSNFGTQTYTCNVDHKPSNTKVDKTVERKCCVECPPCPAPPVAGPSVFLFPPKPKDTLMISRTPEVTCVVVDVSHEDPEVQFNWYVDGVEVHNAKTKPREEQFNSTFRVVSVLTVVHQDWLNGKEYKCKVSNKGLPSSIEKTISKTKGQPREPQVYTLPPSREEMTKNQVSLTCLVKGFYPSDIAVEWESNGQPENNYKTTPPMLDSDGSFFLYSKLTVDKSRWQQGNVFSCSVMHEALHNHYTQKSLSLSPGK
light: EIVLTQSPGTLSLSPGERATLSCTATSSVSSSYLNWYQQKPGQAPRLLIYSTSNLASGIPDRFSGSGSGTDFTLTISRLEPEDFAVYYCHQYHRSTPTFGGGTKVEIKRTVAAPSVFIFPPSDEQLKSGTASVVCLLNNFYPREAKVQWKVDNALQSGNSQESVTEQDSKDSTYSLSSTLTLSKADYEKHKVYACEVTHQGLSSPVTKSFNRGEC
modifications: Humanized and/or affinity matured antibody sequence
- fluorescent signal ave (phospho-STAT5) ([1]; 2.5 nM antibody + 4.5 nM GH): 60
- fluorescent signal ave (phospho-STAT5) ([1]; 5 nM antibody + 4.5 nM GH): 22
- fluorescent signal ave (phospho-STAT5) ([1]; 50 nM antibody + 4.5 nM GH): 0
- fluorescent signal ave (phospho-STAT5) ([1]; 500 nM antibody + 4.5 nM GH): 5
- effect on GH-stimulated STAT5 signaling ([1]; cells expressing human GHR, 4.5 nM GH): blocked STAT5 signaling in a dose-dependent manner
- serum ALS levels (% change from baseline) ([2]; Table 12, cynomolgus monkeys, SS1 3 mg/kg IV single dose, 24 h post-injection): −23.0 +/− 4.0%
- serum ALS levels (% change from baseline) ([2]; Table 12, cynomolgus monkeys, SS1 3 mg/kg IV single dose, 48 h post-injection): −41.7 +/− 3.6%
- serum ALS levels (% change from baseline) ([2]; Table 12, cynomolgus monkeys, SS1 3 mg/kg IV single dose, 72 h post-injection): −45.4 +/− 0.9%
- serum ALS levels (% change from baseline) ([2]; Table 12, cynomolgus monkeys, SS1 3 mg/kg IV single dose, 96 h post-injection): −50.7 +/− 2.3%
- serum ALS levels (% change from baseline) ([2]; Table 12, cynomolgus monkeys, SS1 3 mg/kg IV single dose, 120 h post-injection): −48.0 +/− 0.4%
- serum ALS levels (% change from baseline) ([2]; Table 12, cynomolgus monkeys, SS1 3 mg/kg IV single dose, 144 h post-injection): −45.5 +/− 8.4%
- serum ALS levels (% change from baseline) ([2]; Table 12, cynomolgus monkeys, SS1 3 mg/kg IV single dose, 192 h post-injection): −50.7 +/− 8.8%
- serum ALS levels (% change from baseline) ([2]; Table 12, cynomolgus monkeys, SS1 3 mg/kg IV single dose, 312 h post-injection): −22.0 +/− 8.2%
- serum ALS levels (% change from baseline) ([2]; Table 12, cynomolgus monkeys, SS1 3 mg/kg IV single dose, 336 h post-injection): −23.7 +/− 6.4%
- serum ALS levels (% change from baseline) ([2]; Table 12, cynomolgus monkeys, SS1 10 mg/kg IV single dose, 24 h post-injection): 27.3 +/− 32.1%
- serum ALS levels (% change from baseline) ([2]; Table 12, cynomolgus monkeys, SS1 10 mg/kg IV single dose, 48 h post-injection): −9.4 +/− 23.4%
- serum ALS levels (% change from baseline) ([2]; Table 12, cynomolgus monkeys, SS1 10 mg/kg IV single dose, 72 h post-injection): −8.0 +/− 35.2%
- serum ALS levels (% change from baseline) ([2]; Table 12, cynomolgus monkeys, SS1 10 mg/kg IV single dose, 96 h post-injection): −24.1 +/− 23.6%
- serum ALS levels (% change from baseline) ([2]; Table 12, cynomolgus monkeys, SS1 10 mg/kg IV single dose, 120 h post-injection): −17.5 +/− 30.4%
- serum ALS levels (% change from baseline) ([2]; Table 12, cynomolgus monkeys, SS1 10 mg/kg IV single dose, 144 h post-injection): −46.5 +/− 1.9%
- serum ALS levels (% change from baseline) ([2]; Table 12, cynomolgus monkeys, SS1 10 mg/kg IV single dose, 192 h post-injection): −39.4 +/− 3.3%
- serum ALS levels (% change from baseline) ([2]; Table 12, cynomolgus monkeys, SS1 10 mg/kg IV single dose, 312 h post-injection): −38.7 +/− 4.1%
- serum ALS levels (% change from baseline) ([2]; Table 12, cynomolgus monkeys, SS1 10 mg/kg IV single dose, 336 h post-injection): −40.4 +/− 0.4%
- serum ALS levels (% change from baseline) ([2]; Table 12, cynomolgus monkeys, SS1 30 mg/kg IV single dose, 24 h post-injection): 3.9 +/− 4.2%
- serum ALS levels (% change from baseline) ([2]; Table 12, cynomolgus monkeys, SS1 30 mg/kg IV single dose, 48 h post-injection): −35.1 +/− 1.9%
- serum ALS levels (% change from baseline) ([2]; Table 12, cynomolgus monkeys, SS1 30 mg/kg IV single dose, 72 h post-injection): −34.9 +/− 10.5%
- serum ALS levels (% change from baseline) ([2]; Table 12, cynomolgus monkeys, SS1 30 mg/kg IV single dose, 96 h post-injection): −48.8 +/− 8.0%
- serum ALS levels (% change from baseline) ([2]; Table 12, cynomolgus monkeys, SS1 30 mg/kg IV single dose, 120 h post-injection): −41.2 +/− 13.9%
- serum ALS levels (% change from baseline) ([2]; Table 12, cynomolgus monkeys, SS1 30 mg/kg IV single dose, 144 h post-injection): −50.0 +/− 4.4%
- serum ALS levels (% change from baseline) ([2]; Table 12, cynomolgus monkeys, SS1 30 mg/kg IV single dose, 192 h post-injection): −50.2 +/− 2.0%
- serum ALS levels (% change from baseline) ([2]; Table 12, cynomolgus monkeys, SS1 30 mg/kg IV single dose, 312 h post-injection): −47.1 +/− 2.7%
- serum ALS levels (% change from baseline) ([2]; Table 12, cynomolgus monkeys, SS1 30 mg/kg IV single dose, 336 h post-injection): −50.1 +/− 4.4%
- serum ALS levels (% change from baseline) ([2]; Table 14, cynomolgus monkeys, SS1 3 mg/kg IV single dose, 24 hour post-injection): −4.5 +/− 4.6%
- serum ALS levels (% change from baseline) ([2]; Table 14, cynomolgus monkeys, SS1 3 mg/kg IV single dose, 72 hour post-injection): −31.1 +/− 10.1%
- serum ALS levels (% change from baseline) ([2]; Table 14, cynomolgus monkeys, SS1 3 mg/kg IV single dose, 120 hour post-injection): −37.5 +/− 9.4%
- serum ALS levels (% change from baseline) ([2]; Table 14, cynomolgus monkeys, SS1 3 mg/kg IV single dose, 168 hour post-injection): −32.9 +/− 4.0%
- serum ALS levels (% change from baseline) ([2]; Table 14, cynomolgus monkeys, SS1 3 mg/kg IV single dose, 264 hour post-injection): −9.3 +/− 2.5%
- serum ALS levels (% change from baseline) ([2]; Table 14, cynomolgus monkeys, SS1 3 mg/kg IV single dose, 312 hour post-injection): −4.9 +/− 3.0%
- serum ALS levels (% change from baseline) ([2]; Table 14, cynomolgus monkeys, SS1 3 mg/kg IV single dose, 360 hour post-injection): −9.7 +/− 9.6%
- serum ALS levels (% change from baseline) ([2]; Table 14, cynomolgus monkeys, SS1 3 mg/kg SQ single dose, 24 hour post-injection): −15.9 +/− 0.2%
- serum ALS levels (% change from baseline) ([2]; Table 14, cynomolgus monkeys, SS1 3 mg/kg SQ single dose, 72 hour post-injection): −42.7 +/− 0.5%
- serum ALS levels (% change from baseline) ([2]; Table 14, cynomolgus monkeys, SS1 3 mg/kg SQ single dose, 120 hour post-injection): −41.1 +/− 7.1%
- serum ALS levels (% change from baseline) ([2]; Table 14, cynomolgus monkeys, SS1 3 mg/kg SQ single dose, 168 hour post-injection): −33.7 +/− 6.5%
- serum ALS levels (% change from baseline) ([2]; Table 14, cynomolgus monkeys, SS1 3 mg/kg SQ single dose, 264 hour post-injection): −16.5 +/− 13.2%
- serum ALS levels (% change from baseline) ([2]; Table 14, cynomolgus monkeys, SS1 3 mg/kg SQ single dose, 312 hour post-injection): −5.0 +/− 13.6%
- serum ALS levels (% change from baseline) ([2]; Table 14, cynomolgus monkeys, SS1 3 mg/kg SQ single dose, 360 hour post-injection): −10.0 +/− 10.2%
- serum ALS levels decreased to about ([2]; cynomolgus monkeys, SS1 3 mg/kg IV single dose): about 51%
- serum ALS levels decreased to about ([2]; cynomolgus monkeys, SS1 10 mg/kg IV single dose): ~24%
- serum ALS levels decreased to about ([2]; cynomolgus monkeys, SS1 30 mg/kg IV single dose): ~49%
- time by which serum ALS levels returned to baseline levels ([2]; cynomolgus monkeys, single dose 3 mg/kg SS1 SQ or IV): ≤ 312 h
- serum ALS decrease below control ([2]; cynomolgus monkeys, single dose 3 mg/kg SS1 intravenous (IV)): about 31%
- serum ALS decrease below control ([2]; cynomolgus monkeys, single dose 3 mg/kg SS1 subcutaneous (SQ)): about 43%
- effect on serum ALS levels in cynomolgus monkey ([2]; single IV dose 3, 10 or 30 mg/kg): reduces serum ALS levels
